Measurements published in FireProtDB.
Values joined by “and” are separate entries in the source; they are usually repeats but may differ in a detail not shown here. Equal entries are not always repeated.

Details: whole UniProt chain shown
[1] = Escherichia coli, pH 6, 19 °C, GdnHCl, CD, sodium phosphate 10 mM, sodium sulphate 10 mM, reversible: yes
[2] = Escherichia coli, pH 6, 25 °C, GdnHCl, CD, sodium phosphate 10 mM, sodium sulphate 10 mM, reversible: yes
[3] = Escherichia coli, pH 6, 25 °C, Thermal, DSC, Sodium phosphate 10 mM, Na2SO4 10 mM, reversible: yes
[4] = Escherichia coli, pH 6, Thermal, DSC, Sodium phosphate 10 mM, Na2SO4 10 mM, reversible: yes
[5] = Escherichia coli (strain K12), pH 7, 25 °C, Thermal, DSC, tetra-borate 1 mM, reversible: yes(70-95%)
[6] = Escherichia coli (strain K12), pH 7, Thermal, CD, tetra-borate 1 mM, reversible: yes(70-95%)
[7] = Escherichia coli (strain K12), pH 7, Thermal, DSC, tetra-borate 1 mM, reversible: yes(70-95%)
[8] = Escherichia coli (strain K12), pH 7.8, 25 °C, Urea, CD, Potassium phosphate 10 mM, transition: 3
[9] = Escherichia coli (strain K12), pH 7.8, 25 °C, Urea, CD, Potassium phosphate 10 mM
[10] = Escherichia coli (strain K12), pH 9.3, 25 °C, Thermal, DSC, tetra-borate 1 mM, reversible: yes(70-95%)
[11] = Escherichia coli (strain K12), pH 9.3, Thermal, CD, tetra-borate 1 mM, reversible: yes(70-95%)
[12] = Escherichia coli (strain K12), pH 9.3, Thermal, DSC, tetra-borate 1 mM, reversible: yes(70-95%)
[13] = Erythrina corallodendron, pH 7.4, Thermal, DSC, Sodium phosphate 0.02 M, NaCl 0.15 M, reversible: yes
[14] = Escherichia coli (strain K12), pH 8.3, Thermal, DSC, borate 40 mM

B1: Regulatory protein rop wild type, P03051 (protein)
chain: MTKQEKTALNMARFIRSQTLTLLEKLNELDADEQADICESLHDHADELYRSCLARFGDDGENL
Question: With B1 as the protein, how does the denaturant m value [1] read?
Answer: The denaturant m value was 2.75 kcal/mol/M.

Question: What about the “denaturant midpoint (higher = more stable)” value [1] of the same protein?
Answer: The value was 3.3 M.

Question: And the unfolding free energy [1]?
Answer: The unfolding free energy was 16 kcal/mol.

Question: What about the denaturant m value [2] of the same protein?
Answer: The denaturant m value was 3.06 kcal/mol/M.

Question: And the “denaturant midpoint (higher = more stable)” value [2]?
Answer: Its value is 3.23 M.

Question: And the unfolding free energy [2]?
Answer: The unfolding free energy was 16.9 kcal/mol.

Question: And the “heat capacity change of unfolding” value [3]?
Answer: The value was 2.46 kcal/mol/K.

Question: And the unfolding free energy [3]?
Answer: Its unfolding free energy is 17.1 kcal/mol.

Question: What about the Tm [4] of the same protein?
Answer: The Tm was 71 °C.

Question: And the “heat capacity change of unfolding” value [4]?
Answer: Its value is 2.46 kcal/mol/K.

Question: What about the “unfolding enthalpy (calorimetric)” value [4] of the same protein?
Answer: The value was 139 kcal/mol.

Question: What about the “unfolding enthalpy (van 't Hoff)” value [4] of the same protein?
Answer: Its value is 130 kcal/mol.

Question: What about the Tm (Escherichia coli, pH 7, Thermal, CD, Sodium phosphate 100 mM, NaCl 200 mM) of the same protein?
Answer: The Tm was 64 °C.

B2: Lactose operon repressor wild type, P03023 (protein)
chain: MKPVTLYDVAEYAGVSYQTVSRVVNQASHVSAKTREKVEAAMAELNYIPNRVAQQLAGKQSLLIGVATSSLALHAPSQIVAAIKSRADQLGASVVVSMVERSGVEACKAAVHNLLAQRVSGLIINYPLDDQDAIAVEAACTNVPALFLDVSDQTPINSIIFSHEDGTRLGVEHLVALGHQQIALLAGPLSSVSARLRLAGWHKYLTRNQIQPIAEREGDWSAMSGFQQTMQMLNEGIVPTAMLVANDQMALGAMRAITESGLRVGADISVVGYDDTEDSSCYIPPLTTIKQDFRLLGQTSVDRLLQLSQGQAVKGNQLLPVSLVKRKTTLAPNTQTASPRALADSLMQLARQVSRLESGQ
Question: With B2 as the protein, how does the Tm (Escherichia coli (strain K12), pH 7.4, Thermal, CD, phosphate 5 mM, reversible: no) read?
Answer: Its Tm is 53 °C.

B3: Tryptophan synthase alpha chain wild type, P0A877 (protein)
chain: MERYESLFAQLKERKEGAFVPFVTLGDPGIEQSLKIIDTLIEAGADALELGIPFSDPLADGPTIQNATLRAFAAGVTPAQCFEMLALIRQKHPTIPIGLLMYANLVFNKGIDEFYAQCEKVGVDSVLVADVPVEESAPFRQAALRHNVAPIFICPPNADDDLLRQIASYGRGYTYLLSRAGVTGAENRAALPLNHLVAKLKEYNAAPPLQGFGISAPDQVKAAIDAGAAGAISGSAIVKIIEQHINEPEKMLAALKVFVQPMKAATRS
Question: With B3 as the protein, how does the unfolding free energy (Escherichia coli (strain K12), pH 7, 25 °C, GdnHCl, CD, Potassium phosphate 0.01 M, reversible: yes) read?
Answer: Its unfolding free energy is 9.3 kcal/mol.

Question: And the unfolding free energy (Escherichia coli (strain K12), pH 7, 25 °C, Thermal, CD, tetra-borate 1 mM, reversible: yes(70-95%))?
Answer: The unfolding free energy was 6.7 kcal/mol.

Question: And the “unfolding enthalpy (calorimetric)” value [5]?
Answer: Its value is 23.2 kcal/mol.

Question: What about the unfolding free energy [5] of the same protein?
Answer: The unfolding free energy was 8.4 kcal/mol.

Question: What about the unfolding free energy (Escherichia coli (strain K12), pH 7, 25.8 °C, GdnHCl, CD, Potassium phosphate 0.01 M, reversible: yes) of the same protein?
Answer: The unfolding free energy was 8.8 kcal/mol.

Question: And the Tm [6]?
Answer: The Tm was 61.2 °C.

Question: And the “heat capacity change of unfolding” value [6]?
Answer: The value was 2.45 kcal/mol/K.

Question: What about the “unfolding enthalpy (van 't Hoff)” value [6] of the same protein?
Answer: Its value is 19.7 kcal/mol.

Question: And the Tm [7]?
Answer: Its Tm is 62.4 °C.

Question: What about the “heat capacity change of unfolding” value [7] of the same protein?
Answer: The value was 2.87 kcal/mol/K.

Question: What about the denaturant m value [8] of the same protein?
Answer: The denaturant m value was 2.9 kcal/mol/M and 1.3 kcal/mol/M.

Question: And the unfolding free energy [8]?
Answer: The unfolding free energy was 7.9 kcal/mol and 5.4 kcal/mol.

Question: And the denaturant m value [9]?
Answer: The denaturant m value was 2.23 kcal/mol/M.

Question: What about the unfolding free energy [9] of the same protein?
Answer: Its unfolding free energy is 5.91 kcal/mol.

Question: What about the unfolding free energy (Escherichia coli (strain K12), pH 9.3, 25 °C, Thermal, CD, tetra-borate 1 mM, reversible: yes(70-95%)) of the same protein?
Answer: The unfolding free energy was 3.9 kcal/mol.

Question: What about the “unfolding enthalpy (calorimetric)” value [10] of the same protein?
Answer: The value was 23.2 kcal/mol.

Question: What about the unfolding free energy [10] of the same protein?
Answer: The unfolding free energy was 5.8 kcal/mol.

Question: What about the Tm [11] of the same protein?
Answer: Its Tm is 50.4 °C.

Question: What about the “heat capacity change of unfolding” value [11] of the same protein?
Answer: Its value is 2.45 kcal/mol/K.

Question: And the “unfolding enthalpy (van 't Hoff)” value [11]?
Answer: The value was 19.7 kcal/mol.

Question: What about the Tm [12] of the same protein?
Answer: The Tm was 54.3 °C.

Question: And the “heat capacity change of unfolding” value [12]?
Answer: Its value is 2.87 kcal/mol/K.

B4: Lectin wild type, P16404 (protein)
chain: MATYKLCSVLALSLTLFLLILNKVNSVETISFSFSEFEPGNDNLTLQGAALITQSGVLQLTKINQNGMPAWDSTGRTLYAKPVHIWDMTTGTVASFETRFSFSIEQPYTRPLPADGLVFFMGPTKSKPAQGYGYLGIFNNSKQDNSYQTLGVEFDTFSNPWDPPQVPHIGIDVNSIRSIKTQPFQLDNGQVANVVIKYDASSKILHAVLVYPSSGAIYTIAEIVDVKQVLPEWVDVGLSGATGAQRDAAETHDVYSWSFQASLPETNDAVIPTSNHNTFAI
Question: Which results are given for B4?
Answer: Tm [13]: 61.7 °C; unfolding enthalpy (calorimetric) [13]: 320 kcal/mol; unfolding enthalpy (van 't Hoff) [13]: 151 kcal/mol

B5: Ornithine carbamoyltransferase subunit I wild type, P04391 (protein)
chain: MSGFYHKHFLKLLDFTPAELNSLLQLAAKLKADKKSGKEEAKLTGKNIALIFEKDSTRTRCSFEVAAYDQGARVTYLGPSGSQIGHKESIKDTARVLGRMYDGIQYRGYGQEIVETLAEYASVPVWNGLTNEFHPTQLLADLLTMQEHLPGKAFNEMTLVYAGDARNNMGNSMLEAAALTGLDLRLVAPQACWPEAALVTECRALAQQNGGNITLTEDVAKGVEGADFIYTDVWVSMGEAKEKWAERIALLREYQVNSKMMQLTGNPEVKFLHCLPAFHDDQTTLGKKMAEEFGLHGGMEVTDEVFESAASIVFDQAENRMHTIKAVMVATLSK
Question: For B5, which Tm [14] is on record?
Answer: The Tm was 62.5 °C.

Question: And the “unfolding enthalpy (calorimetric)” value [14]?
Answer: Its value is 600 kcal/mol.
